Source: FireProtDB (doi:10.1021/bi00015a036)

Details: Bacillus amyloliquefaciens, Thermal, DSC, reversible: yes (~80%), whole UniProt chain shown

B1: Ribonuclease wild type, P00648 (protein)
chain: MMKMEGIALKKRLSWISVCLLVLVSAAGMLFSTAAKTETSSHKAHTEAQVINTFDGVADYLQTYHKLPDNYITKSEAQALGWVASKGNLADVAPGKSIGGDIFSNREGKLPGKSGRTWREADINYTSGFRNSDRILYSSDWLIYKTTDHYQTFTKIR
**Q.** With B1 as the protein, how does the Tm (pH 7, PIPES 50 mM) read?
**A.** 54 °C

**Q.** And the “unfolding enthalpy (calorimetric)” value (pH 7, PIPES 50 mM)?
**A.** 132 kcal/mol

**Q.** What about the Tm (pH 10, CAPS 50 mM) of the same protein?
**A.** 48.6 °C

**Q.** What about the “unfolding enthalpy (calorimetric)” value (pH 10, CAPS 50 mM) of the same protein?
**A.** 122 kcal/mol

**Q.** And the Tm (pH 10.3, CAPS 50 mM)?
**A.** 48.4 °C

**Q.** And the “unfolding enthalpy (calorimetric)” value (pH 10.3, CAPS 50 mM)?
**A.** 121 kcal/mol

**Q.** What about the Tm (pH 10.5, CAPS 50 mM) of the same protein?
**A.** 47.4 °C

**Q.** What about the “unfolding enthalpy (calorimetric)” value (pH 10.5, CAPS 50 mM) of the same protein?
**A.** 120 kcal/mol
